Tested on: iBBB (human iPSC-derived BBB)
Assay: Aβ(1–40) / Aβ(1–42) transcytosis and paracellular permeability assay, iBBB (transwell)
Settings: Cy3-labeled Aβ(1–40) added to the abluminal side, 20 nM, 37 °C, 1 h, fluorescence
Description: For iBBBs, iPSC-derived brain endothelial cells (iECs) were dissociated by Accutase, resuspended with hECSR1 supplemented with 10 μM Y27632 and then seeded onto a 24-well Matrigel-coated Transwell at a density of 10^6 cells per cm^2 to complete a confluent monolayer for 24 h. Afterwards, the iPCs, iASs or MEFs were seeded on top of the iEC monolayer culture at a density of 5 × 10^4 cells per cm^2. The iBBBs were further cultured for 12 or 14 days.
For analysis of bottom (apical) to top (basolateral) permeability, 500 μl of medium containing the fluorescent proteins was added to the lower chamber; for analysis of top to bottom permeability, 100 μl medium of the fluorescent proteins was added to the top chamber. Permeability assays were conducted at 37 °C for 1 h. Media from the bottom chamber or the top transwell insert were collected and analyzed by a fluorescence plate reader (Molecular Devices). The rationale for using the indicated final concentrations for each protein was that the levels of diffused or transcytosed proteins were within a detectable range via fluorescence.

“Aβ(1-40): Cy3-labeled amyloid beta (1–40) peptide used as fluorescent permeant at 20 nM in the BBB models” was tested, and the “increase of permeability in WT iBBB compared to iECs co-cultured with MEFs” value was 12%.

Reference: publication PMC10733300, “ANKS1A regulates LDL receptor-related protein 1 (LRP1)-mediated cerebrovascular clearance in brain endothelial cells” (Nature Communications, 2023)
